This note sets out measurements from patent US12084521B2, “TLR9 inhibitors to suppress inflammatory response to pathogens” (University Of Maryland, Baltimore, priority 2018, dated 2024).

No end group written: not given here. Cy3 = Cy3 fluorescent dye label

Test [1] has as its target T1, MyD88 TIR (Homo sapiens, UniProt Q99836).
T1 construct: expressed in transfected cells; host or cells: HeLa
The test can be described thus: FLIM/FRET binding of Cy3-labeled peptides to Cer-fused TIR in HeLa cells. As for the experimental part:
(§1) Three million HeLa cells were transfected with 10 μg of MyD88-Cer, TIRAP-Cer, TRAM-Cer, TLR2-Cer, TLR4 TIR-Cer, or TLR9 TIR-Cer expression vectors using a Lipofectamine™ 3000 kit from Invitrogen™ per manufacturer recommendations. Twenty four hours later, the transfected cells were trypsinized and reseeded into a 50-well gasket (Grace Bio-Labs™) mounted on a microscope slide at the density 8000 cells/well. The next day, cells were treated with Cy3-9R34-ΔN or Cy3-9R11 for 1 hour and fixed on the slides with a 4% paraformaldehyde solution.
(§2) Fluorescence lifetime images were acquired using the Alba V FLIM™ system (ISS™ Inc.). The excitation was from the laser diode 443 nm coupled with scanning module (ISS™) through multiband dichroic filter 443/532/635 nm (Semrock™) to Olympus™ IX71S microscope with objective 20×0.45 NA (UPlan™ Olympus™). Emission was observed through bandpass filter […] (Chroma Technology™) and detected by a photomultiplier H7422-40 (Hamamatsu™). Measurements were performed using frequency domain (FD) and time domain (TD) modalities of the FLIM system. FD FLIM data were acquired using ISS™ A320 FastFLIM™ electronics with n harmonics of 20 MHz laser repetition frequency (n=1, 2, 3, 4, 5, 6). FastFLIM™ was calibrated using fluorescein in buffer pH 8.0 as a standard with a single lifetime of 4.0 ns. TD FLIM images were acquired using time-correlated single photon counting TCSPC™ Model SPC-830 (Becker & Hick™).
(§3) Images (256×256 pixels) were acquired with resolution varied in the range ˜0.4-0.7 μm/pixel, using scan speed 1 ms/pixel. To avoid pixel intensity saturation in bright cells and to improve the signal from dim cells, two to five overlapping scans were used for acquisition of FLIM images. Image sizes varied from 100×100 to 180×180 μm to accommodate multiple cells. FLIM data were analyzed with VistaVision™ Suite software (Vista™ v.212 from ISST). Fluorescence lifetime was determined using single- and bi-exponential intensity decay models. Average lifetime images were generated based on pixel-by-pixel analysis using the combined signal of two neighboring pixels in all directions (bin 2=25 pixels). The binning was used to improve the signal for analysis. The average lifetimes were calculated from fitted parameters, decay times τi and amplitudes αi, τa=Σαiτi. The bi-exponential fitting procedure was performed with one lifetime component fixed at 3.1 nsec, which was found common for most images. To calculate the effective FRET efficiency (E), average lifetimes of the donor only images (τD) and donor-acceptor images (τDA) were used, E=1−τDA/τD.
(§4) To identify potential binding partners of inhibitory peptides a FRET approach coupled with Fluorescence Lifetime Imaging Microscopy (FLIM) was used. HeLa cells were transiently transfected with an expression vector that encodes a TIR domain fused with Cerulean fluorescent protein (Cer). Cells were treated with various concentrations of a Cy3-labeled inhibitory peptide 48 hours after transfection. Cy3 is a suitable FRET acceptor for Cer fluorescence. A direct molecular interaction of a Cy3-labeled peptide with Cer-fused TIR domain should quench Cer fluorescence, leading to a decreased fluorescence lifetime.
(§5) TLR9, MyD88, and TIRAP were selected as potential primary binding partners for Cy3-9R34-ΔN and Cy3-9R11. Cer-fused TLR2 and TLR4 TIR domains, and Cer not fused to a TIR, were used as controls. […] Therefore, the TIRAP-Cer with Cy3-2R9 was used as a positive binding control. Binding of Cy3-labeled CPDPs to Cerulean- (Cer-) labeled TIR domains was tested as follows. Fluorescence Lifetime IMages (FLIM) were made of HeLa cells expressing Cer not fused with a TIR domain (upper row) or fused with TLR9 TIR or TIRAP TIR (middle and bottom rows) and treated with a Cy3-labeled decoy peptide for 1 hour.
(§6) A progressive shift of average fluorescence lifetime towards lower values observed with increasing peptide concentrations indicates the binding between donor and acceptor moieties. […]

Test [2] deals with T2, TIRAP TIR (Homo sapiens, UniProt P58753).
T2 construct: fused with TLR9 TIR or TIRAP TIR; expressed in transfected cells; host or cells: HeLa
The test is described as above. The settings on record: for quenching of TIRAP-Cer fluorescence: HeLa cells, Cy3-peptide 2.5-40 μM, 1 hour. As for the experimental part:
as §1, §2, §3, §4, §5, §6

Test [3] concerns the target T3, TLR9 TIR (Homo sapiens, UniProt Q9NR96).
T3 construct: expressed in transfected cells; host or cells: HeLa
T3 sequence (Q9NR96 868-1013 limits assumed): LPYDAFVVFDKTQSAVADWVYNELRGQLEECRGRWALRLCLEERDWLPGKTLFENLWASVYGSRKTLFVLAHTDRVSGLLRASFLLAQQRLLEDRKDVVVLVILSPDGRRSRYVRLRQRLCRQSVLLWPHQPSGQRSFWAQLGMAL
The test is described as above. The settings on record: for FRET efficiency, TLR9 TIR-Cer: HeLa cells, Cy3-peptide 2.5-40 μM, 1 hour, dose-dependent. As for the experimental part:
as §1, §2, §3, §4, §5, §6

Test [4] relates to Cer not fused to a TIR domain. As to the kind of experiment: FLIM/FRET control construct in HeLa cells. In kind it is binding. The settings on record: peptide 40 μM. As for the experimental part: as §1, §2, §3, §5
Test [5] has as its target T4, TLR2 TIR-Cer (Homo sapiens, UniProt O60603).
T4 construct: Cer-fused TLR2 and TLR4 TIR domains; expressed in transfected cells; host or cells: HeLa
As to the kind of experiment: FLIM/FRET control construct in HeLa cells. In kind it is binding. The settings on record: peptide 40 μM. As for the experimental part:
as §1, §2, §3, §5

The subject of test [6] is TLR4 TIR-Cer. As to the kind of experiment: FLIM/FRET control construct in HeLa cells. In kind it is binding. The settings on record: peptide 40 μM. As for the experimental part: as §1, §2, §3, §5
For test [7], the target named is T5, TRAM-Cer (Homo sapiens, UniProt Q86XR7).
T5 construct: expressed in transfected cells; host or cells: HeLa
The test can be described thus: FLIM/FRET control construct in HeLa cells. In kind it is binding. The settings on record: peptide 40 μM. As for the experimental part: as §1, §2, §3, §5

T1 sequence (Q99836 159-293 limits assumed): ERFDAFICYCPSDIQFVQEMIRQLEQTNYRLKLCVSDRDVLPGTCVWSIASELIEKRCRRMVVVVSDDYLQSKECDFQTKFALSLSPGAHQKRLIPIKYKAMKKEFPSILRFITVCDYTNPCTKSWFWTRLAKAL
T2 sequence (P58753 84-213 limits assumed): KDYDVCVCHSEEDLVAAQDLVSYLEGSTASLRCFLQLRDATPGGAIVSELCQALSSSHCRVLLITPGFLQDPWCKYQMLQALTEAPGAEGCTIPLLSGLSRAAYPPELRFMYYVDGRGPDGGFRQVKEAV
T5 sequence (Q86XR7 whole entry): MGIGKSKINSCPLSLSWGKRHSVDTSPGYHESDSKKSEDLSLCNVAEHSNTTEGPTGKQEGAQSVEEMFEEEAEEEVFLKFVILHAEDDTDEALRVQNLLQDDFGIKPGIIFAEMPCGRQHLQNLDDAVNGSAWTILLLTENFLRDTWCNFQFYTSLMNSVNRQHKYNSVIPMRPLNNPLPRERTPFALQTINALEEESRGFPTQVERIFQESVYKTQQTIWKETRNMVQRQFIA
T4 sequence (O60603 639-782 limits assumed): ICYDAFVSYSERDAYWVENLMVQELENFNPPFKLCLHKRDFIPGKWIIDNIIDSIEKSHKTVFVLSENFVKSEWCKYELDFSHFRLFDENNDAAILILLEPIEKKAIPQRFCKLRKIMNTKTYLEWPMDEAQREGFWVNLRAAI

On to “Cy3-9R11: Cy3-labeled 9R11 peptide, Cy3 label placed at the peptide N-terminus (Cy3-RQIKIWFQNRRMKWKKRSFWAQLGMALTRD)”, for which the “quenching of MyD88-Cer fluorescence lifetime” value in test [1] is “detectable, but less effective”. The “quenching of TIRAP-Cer fluorescence” value in test [2] is listed as “induced FRET from TIRAP-Cer, but only when used at higher concentrations of 10 or 40 μM”. The “FRET efficiency, TLR9 TIR-Cer” value in test [3] was 3-27%. For the same substance, the “fluorescence lifetime of Cer not fused to a TIR domain (unspecific quenching)” value in test [4] is “Unspecific Cer quenching”.

“Cy3-9R34-ΔN: Cy3-labeled 9R34-ΔN peptide, Cy3 label placed at the peptide N-terminus (Cy3-RQIKIWFQNRRMKWKKALRLCLEERD)”: the “quenching of MyD88 TIR-Cer” value in test [1] (peptide 40 μM, considerably less than on TLR9 and TIRAP TIR-Cer) was “notable”. Further, the “average fluorescence lifetime of Cer-labeled MyD88 TIR” value in test [1] (peptide 2.5 and 10 μM) is reported as “not affected”. Further, the “effect on TIRAP-Cer fluorescence at the lowest peptide concentration” value in test [2] (2.5 μM) is reported as “absence of the effect”. Also, in test [2], the “quenching of TIRAP-Cer fluorescence” value is recorded as “notably quenched”. The “FRET efficiency, TLR9 TIR-Cer” value in test [3] is 9-23%. In test [3] (minimal peptide concentration 2.5 μM), the “fluorescence lifetime of TLR9 TIR-Cer construct” value is recorded as “decreased”. Further, the “fluorescence lifetime of Cer not fused to a TIR domain (unspecific quenching)” value in test [4] was “slightly affected”. The “fluorescence lifetime of control TLR2 TIR-Cer” value in test [5] is on record as “slightly affected”. The “fluorescence lifetime of control TLR4 TIR-Cer” value in test [6] is “slightly affected”. Moreover, the “fluorescence lifetime of control TRAM-Cer” value in test [7] was “slightly affected”.
